Patent publication US20250145697A1 (WASHINGTON UNIVERSITY, published 2025)

Key:
[1] = biological target: T1, murine ApoE (mouse, UniProt P08226 19-311); test: Western blot of mouse brain lysates
T1 sequence (looked up): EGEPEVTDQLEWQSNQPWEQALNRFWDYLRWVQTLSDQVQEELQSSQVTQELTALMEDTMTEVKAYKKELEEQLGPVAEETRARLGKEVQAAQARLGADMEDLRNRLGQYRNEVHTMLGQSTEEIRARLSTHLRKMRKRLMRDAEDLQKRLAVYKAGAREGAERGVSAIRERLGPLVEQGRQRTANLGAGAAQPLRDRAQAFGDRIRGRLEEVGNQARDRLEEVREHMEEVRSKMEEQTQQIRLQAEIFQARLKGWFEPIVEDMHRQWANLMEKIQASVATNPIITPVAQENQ
Description: Brain lysates from apoE KO mice or mice expressing human apoE3, human apoE4 or murine apoE were immunoblotted with HJ151, HJ152, HJ153, and HJ154. A commercial apoE antibody GA-50 was used as a positive control.

[2] = biological target: T2, recombinant alipidated human ApoE4 (human, UniProt P02649 19-317); test: direct ELISA on coated recombinant alipidated ApoE (0.5 ug/ml)
T2 construct: mature; full length recombinant protein made in E. coli or bought; biotinylated for SPR; position 112 is counted on the mature protein, not on the precursor entry; also called recApoE; non-lipidated ApoE4
Description: (§1) ELISA dose response curves were generated for several anti-ApoE antibodies. Briefly, plates were coated overnight with full length recombinant alipidated ApoE2, ApoE3, or ApoE4 (0.5 μg/ml). The following days, plates were washed, blocked and then incubated with an anti-ApoE antibody. A goat, anti-mouse IgG-HRP antibody was used for secondary detection. Recombinant alipidated ApoE was either expressed solubly in E. coli and then purified, or purchased from a commercial supplier.

[3] = biological target: T3, recombinant alipidated human ApoE3 (human, UniProt P02649 19-317); test: as above
T3 construct: mature; full length recombinant protein made in E. coli or bought
Description: as §1

[4] = biological target: T4, recombinant alipidated human ApoE2 (human, UniProt P02649 19-317); test: as above
T4 construct: mature; full length recombinant protein made in E. coli or bought
Description: as §1

[5] = biological target: T2, recombinant alipidated human ApoE4; test: ELISA: untreated recombinant ApoE4 on the plate, antibody titrated, OD650
Description: (§2) 1: untreated ApoE4. 2: ApoE4 that has been incubated at 40° C. for 24 hr. Supernatant(S) and pellet (P) from ultracentrifugation were resolved on SDS-PAGE and stained by Coomassie blue. (D) Binding of HJ156 to different preparations of ApoE4 loaded at the same concentration on the ELISA plate. Sup of untreated: Supernatant fraction of untreated ApoE4 from ultracentrifugation. Sup/Pel of 24h 40C: Supernatant/pellet fraction of ApoE4 incubated at 40° C. for 24 hour. (E) Binding of HJ156 to untreated and 40° C. incubated ApoE4 with and without denaturation by 1% SDS or 4M guanidine HCl.
(§3) In order to test whether HJ151 and HJ156 bind to some form of ApoE in the brain, unfixed frozen brain sections from APPPS1/APOE4 or APPPS1/EKO mice using HJ151 and HJ156 (FIG. 38A). The presence of Aβ plaques was confirmed with Aβ immunostaining using anti-Aβ antibody HJ3.4 on the sections from the same brain. […] Next, the ability of HJ156 to bind to an aggregated form of ApoE induced by incubation at 40° C. was queried. The binding of untreated ApoE to HJ151, HJ153 or HJ156 was compared to the binding of ApoE incubated at 40° C. to HJ151, HJ153 or HJ156. HJ153 bound to untreated ApoE or ApoE incubated at 40° C. similarly while HJ151 and HJ156 preferentially bound to ApoE incubated at 40° C. (FIG. 38B). […] Solubilization of the ApoE aggregates reduced their binding to HJ156. […]

[6] = biological target: T2, recombinant alipidated human ApoE4; test: SPR, biotinylated recombinant apoE4 captured on a streptavidin chip; column Ka (1/Ms)
Description: (§4) ELISA plates were coated with 0.5 μg/ml of recombinant apoE2 (square), apoE3 (open circle), or apoE4 (closed circle). Then different concentrations of (A) HJ151, (B) HJ153, (C) HJ154, or (D) HJ156 were loaded on the plates. Horse-radish peroxidase labeled goat anti-mouse secondary antibodies were used to detect binding. […] HJ151 is specific for ApoE4 and HJ156 binds only ApoE3 and ApoE4. FIG. 5E-H are graphs depicting surface plasmon resonance profiles for various antibodies. Anti-ApoE antibodies were serially diluted 3-fold (starting at 100 nM for HJ153 (E), and 1000 nM for HJ151 (F), and […] (G)) for detection of binding to biotinylated-recombinant apoE4 captured on a streptavidin chip. Samples were injected at a flow rate of 30 μl/minute. (H) Apparent KD values of HJ151, HJ153 and HJ156 were calculated based on the SPR experiment.
(§5) ELISA plates were coated with 0.5 μg/ml of recombinant apoE2, apoE3, or apoE4. Then different concentrations of HJ151 (FIG. 5A), HJ153 (FIG. 5B), HJ154 (FIG. 5C), or HJ156 (FIG. 5D) were loaded on the plates. Horse-radish peroxidase labeled goat anti-mouse secondary antibodies were used to detect binding. […] HJ151 is specific for ApoE4 and HJ156 binds only ApoE3 and ApoE4. Surface plasmon resonance profiles for various antibodies was also performed.

[7] = biological target: T2, recombinant alipidated human ApoE4; test: SPR (Biacore T200), biotinylated ApoE4 captured on anti-biotin mAb chip, antibody injected, 1:1 fit
Description: The affinity of several anti-ApoE antibodies for ApoE4 was determined by surface plasmon resonance using a BIAcore T200. Anti-biotin monoclonal mouse antibody was immobilized on a Biacore Series S CM5 sensor chip. Biotinylated recombinant alipidated ApoE4 was then captured on to the chip. Serial dilutions of each antibody were injected at a flow rate of 30 μl/min. Each sample was analyzed, for example, with 3-minute association and 10-minute dissociation. After each injection the chip was regenerated using 3 M MgCl₂ or another appropriate buffer. Binding response was corrected by subtracting the response units (RUs) from a flow cell capturing an irrelevant IgG at similar density. A 1:1 Languir model of simultaneous fitting of Kₒₙ and Koff was used for kinetics analysis. Recombinant alipidated ApoE4 was either expressed in soluble form in E. coli and then purified, or purchased from a commercial supplier.

[8] = biological target: T2, recombinant alipidated human ApoE4; test: SPR, biotinylated recombinant apoE4 captured on a streptavidin chip; column Apparent KD (M)
Description: as §4, §5

[9] = biological target: T5, heat-induced aggregates of ApoE4 (human, UniProt P02649 19-317); test: ELISA: ApoE4 incubated at 40 C for 24 hr on the plate, antibody titrated, OD650
T5 construct: mature; aggregated state of the recombinant protein; also called ApoE4 incubated at 40 C for 24 hr; heat-treated ApoE4
Description: as §2, §3

[10] = biological target: T2, recombinant alipidated human ApoE4; test: SPR, biotinylated recombinant apoE4 captured on a streptavidin chip; column Kd (1/s)
Description: as §4, §5

T2 sequence (P02649 19-317 C130R): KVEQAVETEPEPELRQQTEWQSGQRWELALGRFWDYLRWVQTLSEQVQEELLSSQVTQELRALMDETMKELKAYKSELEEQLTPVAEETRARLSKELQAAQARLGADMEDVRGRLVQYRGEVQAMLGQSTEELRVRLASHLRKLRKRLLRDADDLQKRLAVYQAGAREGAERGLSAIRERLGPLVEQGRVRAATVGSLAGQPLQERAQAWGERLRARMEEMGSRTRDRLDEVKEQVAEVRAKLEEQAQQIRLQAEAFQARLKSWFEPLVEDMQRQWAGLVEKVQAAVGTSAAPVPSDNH
T4 sequence (P02649 19-317 R176C): as the sequence (P02649 19-317 C130R) above, with R112C, R158C counted along it
T5 sequence (P02649 19-317 C130R): as the sequence (P02649 19-317 C130R) above
T3 sequence (P02649 19-317): as the sequence (P02649 19-317 C130R) above, with R112C counted along it

binding result [1]: no binding | EC50 [2]: 0.03 nM | EC50 [3]: 0.02 nM | EC50 [4]: 0.02 nM | EC50 (read off the curve) [5]: ~0.3 nM | kon [6]: 662000 M⁻¹ s⁻¹ | Kd [7]: 0.43 nM | koff [7]: 0.000346 s⁻¹ | kon [7]: 804000 M⁻¹ s⁻¹ | Kd [8]: 0.319 nM | EC50 (read off the curve) [9]: ~0.2 nM | koff [10]: 0.000211 s⁻¹
B1: HJ153 (antibody, V domains shown)
VH: QVQLQQPGAELVKPGASVKLSCKASGYTFTSYWMHWVKQRPGRGLEWIGEIDPSDGFTYNNQNFKDKSTLTVDRSSGTAYLQLSSLTSEDSAVYYCAGSLGRIGLAYWGHGTLVTVSA
VL: QIVLTQSPAIMSASPGEKVTISCSASSSVTYMYWYQQKPGASPKSWIYRTSNLASGVPARFSGSGSGTSYSLTISSMEAEDAATYYCQQFQSYPLTFGAGTKLELKR
notes: murine monoclonal antibody from hybridoma; also called HJ153B (biotinylated)
